Article PMC7954794, “Protein context shapes the specificity of SH3 domain-mediated interactions in vivo” (Nature Communications, 2021)

Tested on: growth of yeast strains under 51 stress conditions
Experiment: Growth assays in 51 stress conditions (Fig. 1E-F, S2D, S5B)
Assay type: cell-based, Saccharomyces cerevisiae
Parameters: key to Growth (Fig. S2D) / growth of ABP1 SH3-swapped strains in stress condition: log2 colony size, average of median per strain (growth score)
Settings: ABP1 SH3-swapped strains
Summary of the method: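 Colony sizes at 74 h on 51 stress media (37 °C) were log2 transformed, corrected for plate effects, and averaged across two plates as per-plate medians (growth score). Strains arrayed in 12 replicates with WT border, grown first on YPD for two days at 30 °C.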

B1: BOI1 (protein, UniProt P38041 1-980, looked up)
BEM1-interacting protein 1: MSLEGNTLGKGAKSFPLYIAVNQYSKRMEDELNMKPGDKIKVITDDGEYNDGWYYGRNLRTKEEGLYPAVFTKRIAIEKPENLHKSPTQESGNSGVKYGNLNDSASNIGKVSSHQQENRYTSLKSTMSDIDKALEELRSGSVEQEVSKSPTRVPEVSTPQLQDEQTLIQEKTRNEENTTHDSLFSSTADLNLSSESLKNISKSNISTKSLEPSSESVRQLDLKMAKSWSPEEVTDYFSLVGFDQSTCNKFKEHQVSGKILLELELEHLKELEINSFGIRFQIFKEIRNIKSAIDSSSNKLDADYSTFAFENQAAQLMPAATVNRDEIQQQISSKCNKLSSESSDRKSSSVTTELQRPSSVVVNPNFKLHDPAEQILDMTEVPNLFADKDIFESPGRAPKPPSYPSPVQPPQSPSFNNRYTNNNARFPPQTTYPPKNKNPTVYSNGLIPNSSTSSDNSTGKFKFPAMNGHDSNSRKTTLTSATIPSINTVNTDESLPAISNISSNATSHHPNRNSVVYNNHKRTESGSSFVDLFNRISMLSPVKSSFDEEETKQPSKASRAVFDSARRKSSYGHSRDASLSEMKKHRRNSSILSFFSSKSQSNPTSPTKQTFTIDPAKMTSHSRSQSNSYSHARSQSYSHSRKHSLVTSPLKTSLSPINSKSNIALAHSETPTSSNNKEAVSQPSEGKHKHKHKHKSKHKHKNSSSKDGSSEEKSKKKLFSSTKESFVGSKEFKRSPSELTQKSTKSILPRSNAKKQQTSAFTEGIRSITAKESMQTADCSGWMSKKGTGAMGTWKQRFFTLHGTRLSYFTNTNDEKERGLIDITAHRVLPASDDDRLISLYAASLGKGKYCFKLVPPQPGSKKGLTFTEPRVHYFAVENKSEMKAWLSAIIKATIDIDTSVPVISSYATPTIPLSKAQTLLEEARLQTQLRDAEEEEGRDQFGWDDTQNKRNSNYPIEQDQFETSDYLESSAFEYPGGRL
Q: For B1, which “Growth (Fig. S2D)” value (Bathophenanthroline.0.1uM) is on record?
A: 10.8558

Q: And the “Growth (Fig. S2D)” value (Bathophenanthroline.10uM)?
A: 10.6819

Q: And the “Growth (Fig. S2D)” value (Bathophenanthroline.1uM)?
A: 10.8124

Q: And the “Growth (Fig. S2D)” value (CaCl2.100mM)?
A: 10.8898

Q: And the “Growth (Fig. S2D)” value (CaCl2.250mM)?
A: 10.7569

Q: What about the “Growth (Fig. S2D)” value (CaCl2.500mM) of the same molecule?
A: 10.2369

Q: What about the “Growth (Fig. S2D)” value (Caffein.10mM) of the same molecule?
A: 9.961

Q: And the “Growth (Fig. S2D)” value (Caffein.2mM)?
A: 10.9473

Q: And the “Growth (Fig. S2D)” value (CdCl2.100uM)?
A: 9.222

Q: And the “Growth (Fig. S2D)” value (CdCl2.10uM)?
A: 10.8438

Q: And the “Growth (Fig. S2D)” value (CdCl2.50uM)?
A: 9.731

Q: And the “Growth (Fig. S2D)” value (CuSO4.1mM)?
A: 10.511

Q: And the “Growth (Fig. S2D)” value (CuSO4.5mM)?
A: 7.921

Q: What about the “Growth (Fig. S2D)” value (Cycloheximide.0.05.uM) of the same molecule?
A: 11.026

Q: What about the “Growth (Fig. S2D)” value (Cycloheximide.0.2.uM) of the same molecule?
A: 10.6068

Q: And the “Growth (Fig. S2D)” value (Cycloheximide.0.5.uM)?
A: 10.1487

Q: And the “Growth (Fig. S2D)” value (DMSO.2.)?
A: 10.9996

Q: And the “Growth (Fig. S2D)” value (DMSO.6.)?
A: 9.7528

Q: What about the “Growth (Fig. S2D)” value (DMSO.8.) of the same molecule?
A: 9.017

Q: What about the “Growth (Fig. S2D)” value (Ethanol.2.) of the same molecule?
A: 10.7382

Q: And the “Growth (Fig. S2D)” value (Ethanol.6.)?
A: 10.327

Q: And the “Growth (Fig. S2D)” value (Ethanol.8.)?
A: 10.13

Q: What about the “Growth (Fig. S2D)” value (Galactose.2.) of the same molecule?
A: 10.7623

Q: And the “Growth (Fig. S2D)” value (Glycerol.2.)?
A: 9.776

Q: And the “Growth (Fig. S2D)” value (Hydroxyurea.25mM)?
A: 10.8154

Q: What about the “Growth (Fig. S2D)” value (Hygromycin.190uM) of the same molecule?
A: 11.0114

Q: What about the “Growth (Fig. S2D)” value (Hygromycin.19uM) of the same molecule?
A: 10.9627

Q: What about the “Growth (Fig. S2D)” value (Hygromycin.95uM) of the same molecule?
A: 10.9456

Q: And the “Growth (Fig. S2D)” value (MMS.0.004.)?
A: 11.0063

Q: What about the “Growth (Fig. S2D)” value (MMS.0.02.) of the same molecule?
A: 10.7015

Q: And the “Growth (Fig. S2D)” value (MMS.0.04.)?
A: 10.0905

Q: What about the “Growth (Fig. S2D)” value (Menadione.100uM) of the same molecule?
A: 10.612

Q: What about the “Growth (Fig. S2D)” value (Menadione.200uM) of the same molecule?
A: 10.4246

Q: What about the “Growth (Fig. S2D)” value (Menadione.50uM) of the same molecule?
A: 10.8341

Q: What about the “Growth (Fig. S2D)” value (NaCl.0.25M) of the same molecule?
A: 10.7827

Q: And the “Growth (Fig. S2D)” value (NaCl.1M)?
A: 9.573

Q: And the “Growth (Fig. S2D)” value (Nitroquinoline.10uM)?
A: 10.6267

Q: And the “Growth (Fig. S2D)” value (Nitroquinoline.50uM)?
A: 10.6407

Q: What about the “Growth (Fig. S2D)” value (Nystatin.0.01uM) of the same molecule?
A: 11.0406

Q: And the “Growth (Fig. S2D)” value (Nystatin.0.1uM)?
A: 11.0134

Q: What about the “Growth (Fig. S2D)” value (Raffinose.2.) of the same molecule?
A: 11.0354

Q: What about the “Growth (Fig. S2D)” value (Rapamycin.10nM) of the same molecule?
A: 9.9199

Q: And the “Growth (Fig. S2D)” value (Rapamycin.50nM)?
A: 9.475

Q: What about the “Growth (Fig. S2D)” value (SC.pH3) of the same molecule?
A: 10.3897

Q: And the “Growth (Fig. S2D)” value (SC.pH6)?
A: 10.9841

Q: And the “Growth (Fig. S2D)” value (SDS.0.01.)?
A: 10.9238

Q: What about the “Growth (Fig. S2D)” value (SDS.0.02.) of the same molecule?
A: 11.0048

Q: What about the “Growth (Fig. S2D)” value (SDS.0.05.) of the same molecule?
A: 10.8898

Q: What about the “Growth (Fig. S2D)” value (Sorbitol.10mM) of the same molecule?
A: 10.9854

Q: And the “Growth (Fig. S2D)” value (Sorbitol.1mM)?
A: 11.0069

Q: What about the “Growth (Fig. S2D)” value (Sorbitol.5mM) of the same molecule?
A: 10.9417
